Experiments:
Assay in all cases: cryo-EM structure; genome-packed Douge virions purified from M. smegmatis lysate (PEG, CsCl gradient), vitrified at 4 °C; capsid, connector-vertex, tail tube, baseplate and central fiber reconstructed separately (2.18-4.26 Å) and joined in a composite map; the proteins stood in the assembled virion
[1] = biological target: adaptor protein, gp9 of mycobacteriophage Douge (mycobacteriophage Douge)
[2] = biological target: baseplate hub protein (BHP), gp18 of mycobacteriophage Douge (mycobacteriophage Douge)
[3] = biological target: capsid cement protein (CCP), gp113 of mycobacteriophage Douge (mycobacteriophage Douge)
[4] = biological target: central fiber protein (CFP), gp20 of mycobacteriophage Douge (mycobacteriophage Douge)
[5] = biological target: distal tail protein (DTP), gp17 of mycobacteriophage Douge (mycobacteriophage Douge)
[6] = biological target: portal protein, gp5 of mycobacteriophage Douge (mycobacteriophage Douge)
[7] = biological target: stopper protein, gp10 of mycobacteriophage Douge (mycobacteriophage Douge)
[8] = biological target: tail tube protein (TTP), gp13 of mycobacteriophage Douge (mycobacteriophage Douge)
[9] = biological target: tape measure protein (TMP), gp16 of mycobacteriophage Douge (mycobacteriophage Douge)
[10] = biological target: terminator protein, gp12 of mycobacteriophage Douge (mycobacteriophage Douge)

## adaptor protein, gp9 of mycobacteriophage Douge (natural protein)
[1]
  stoichiometry N: 12

## baseplate hub protein (BHP), gp18 of mycobacteriophage Douge (natural protein)
[2]
  stoichiometry N: 3

## capsid cement protein (CCP), gp113 of mycobacteriophage Douge (natural protein)
[3]
  stoichiometry N: 2

## central fiber protein (CFP), gp20 of mycobacteriophage Douge (natural protein)
[4]
  stoichiometry N: 3

## distal tail protein (DTP), gp17 of mycobacteriophage Douge (natural protein)
[5]
  stoichiometry N: 6

## portal protein, gp5 of mycobacteriophage Douge (natural protein)
[6]
  stoichiometry N: 12

## stopper protein, gp10 of mycobacteriophage Douge (natural protein)
[7]
  stoichiometry N: 6

## tail tube protein (TTP), gp13 of mycobacteriophage Douge (natural protein)
[8]
  stoichiometry N: 6

## tape measure protein (TMP), gp16 of mycobacteriophage Douge (natural protein)
[9]
  stoichiometry N: 3

## terminator protein, gp12 of mycobacteriophage Douge (natural protein)
[10]
  stoichiometry N: 6

Source: publication PMC13033339
